The text below walks through data of patent publication US6908994 (TEXAS A AND M UNIVERSITY SYSTEM, dated 2005).

The term EC50 (read off the curve) denotes the midpoint of the concentration-response curve. A higher EC50 (read off the curve) goes with weaker potency. In general, Kd refers to the concentration at which binding is half-saturated. Low values mean tighter binding, high ones weaker binding.

Where two headings read alike, the source gives them in different places.

Experiment [1] addresses Collagen type IV (CIV). The experiment is described as follows: cell-based or functional assay.
In experiment [2] the target is Mouse laminin (isolated from the EHS-sarcoma) (mouse) (UniProt P19137). The experiment is described as follows: cell-based or functional assay.
Experiment [3] deals with Bovine serum albumin (BSA) (bovine) (UniProt P02769). The experiment is described as follows: cell-based or functional assay.
Sequence of Bovine serum albumin (BSA) (bovine) (P02769 25-607 limits assumed): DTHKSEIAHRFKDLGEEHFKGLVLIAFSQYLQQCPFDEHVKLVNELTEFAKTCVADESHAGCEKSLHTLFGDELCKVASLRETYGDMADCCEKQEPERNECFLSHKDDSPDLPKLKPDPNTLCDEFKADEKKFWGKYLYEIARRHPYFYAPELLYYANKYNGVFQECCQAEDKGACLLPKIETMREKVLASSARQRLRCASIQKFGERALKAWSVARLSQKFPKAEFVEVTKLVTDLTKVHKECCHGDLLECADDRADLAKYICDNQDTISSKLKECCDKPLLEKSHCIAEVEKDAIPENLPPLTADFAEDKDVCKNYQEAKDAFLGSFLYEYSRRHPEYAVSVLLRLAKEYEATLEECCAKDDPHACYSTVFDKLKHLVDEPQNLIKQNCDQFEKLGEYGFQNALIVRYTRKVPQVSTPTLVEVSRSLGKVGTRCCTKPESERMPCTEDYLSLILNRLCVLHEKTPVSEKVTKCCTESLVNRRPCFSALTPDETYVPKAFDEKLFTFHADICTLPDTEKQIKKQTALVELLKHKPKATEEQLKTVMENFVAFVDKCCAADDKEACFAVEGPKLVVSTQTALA
Experiment [4] concerns the target Collagen type IV (CIV). The experiment is described as follows: cell-based or functional assay. The source holds these as a separate data set.
The target of experiment [5] is Ace of E. faecalis strain OG1RF (native; on 46°C grown cells and in mutanolysin extracts) (Enterococcus faecalis strain OG1RF). The experiment is described as follows: cell-based or functional assay.
Experiment [6] has the same target. Put plainly: cell-based or functional assay. This is another data set of the same source.
The target in experiment [7] is Ace of E. faecalis strain MC02152 (native; on cells and in mutanolysin extracts) (Enterococcus faecalis strain MC02152). The experiment is described as follows: cell-based or functional assay.
Experiment [8] addresses Ace of E. faecalis strain V583 (native; on cells and in mutanolysin extracts) (Enterococcus faecalis strain V583). Put plainly: cell-based or functional assay.
The target in experiment [9] is Collagen type I (CI). The experiment is described as follows: ELISA, 10 µg immobilised CI, bound His-tagged Ace A detected with penta-His monoclonal antibody, OD450.
For experiment [10], the target named is Mouse laminin (isolated from the EHS-sarcoma) (mouse) (UniProt P19137). The experiment is described as follows: ELISA, 10 µg immobilised LN, bound His-tagged Ace A detected with penta-His monoclonal antibody, OD450. A general note: ELISA stands for enzyme-linked immunosorbent assay.
In experiment [11] the target is Mouse laminin (isolated from the EHS-sarcoma) (mouse, UniProt P19137 25-3083; P02469 22-1786; P02468 34-1607). Put plainly: cell-based or functional assay.
Experiment [12] deals with T1, Bovine Type I collagen (Collagen Corp.), immobilised on a CM5 chip (bovine, UniProt P02453 162-1217; P02465 80-1117).
T1 construct: Bought, predissolved in 0.1 M HCl
T1 sequence (P02453 162-1217 limits assumed, chain 1 of 2): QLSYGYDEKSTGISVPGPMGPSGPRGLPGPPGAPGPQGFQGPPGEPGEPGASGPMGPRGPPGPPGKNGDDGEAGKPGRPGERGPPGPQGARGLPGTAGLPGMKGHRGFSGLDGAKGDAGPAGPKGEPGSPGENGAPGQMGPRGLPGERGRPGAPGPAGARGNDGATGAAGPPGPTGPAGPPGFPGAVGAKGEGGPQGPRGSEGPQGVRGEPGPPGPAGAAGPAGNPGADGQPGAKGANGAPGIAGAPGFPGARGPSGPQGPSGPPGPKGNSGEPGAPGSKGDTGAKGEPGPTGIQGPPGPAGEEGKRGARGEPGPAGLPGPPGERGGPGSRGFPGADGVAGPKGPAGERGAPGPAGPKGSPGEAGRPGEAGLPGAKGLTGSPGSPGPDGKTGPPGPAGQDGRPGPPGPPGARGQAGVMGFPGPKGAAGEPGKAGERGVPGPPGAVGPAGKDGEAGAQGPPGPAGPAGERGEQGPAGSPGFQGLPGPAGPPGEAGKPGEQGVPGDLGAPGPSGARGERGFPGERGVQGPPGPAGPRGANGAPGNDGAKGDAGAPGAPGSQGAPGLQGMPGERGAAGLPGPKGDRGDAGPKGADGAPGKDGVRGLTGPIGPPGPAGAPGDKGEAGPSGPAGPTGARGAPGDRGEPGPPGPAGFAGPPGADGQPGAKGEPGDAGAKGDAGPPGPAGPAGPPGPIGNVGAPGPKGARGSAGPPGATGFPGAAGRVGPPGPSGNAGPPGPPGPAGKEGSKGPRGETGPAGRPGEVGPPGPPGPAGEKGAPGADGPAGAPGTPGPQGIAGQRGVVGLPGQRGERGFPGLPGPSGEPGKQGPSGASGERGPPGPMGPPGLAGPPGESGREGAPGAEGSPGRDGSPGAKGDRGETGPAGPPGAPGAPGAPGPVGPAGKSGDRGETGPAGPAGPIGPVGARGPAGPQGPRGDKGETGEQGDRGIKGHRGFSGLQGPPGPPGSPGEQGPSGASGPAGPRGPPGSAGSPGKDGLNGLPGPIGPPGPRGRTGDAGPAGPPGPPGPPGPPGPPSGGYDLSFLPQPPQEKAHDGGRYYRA
T1 sequence (P02465 80-1117 limits assumed, chain 2 of 2): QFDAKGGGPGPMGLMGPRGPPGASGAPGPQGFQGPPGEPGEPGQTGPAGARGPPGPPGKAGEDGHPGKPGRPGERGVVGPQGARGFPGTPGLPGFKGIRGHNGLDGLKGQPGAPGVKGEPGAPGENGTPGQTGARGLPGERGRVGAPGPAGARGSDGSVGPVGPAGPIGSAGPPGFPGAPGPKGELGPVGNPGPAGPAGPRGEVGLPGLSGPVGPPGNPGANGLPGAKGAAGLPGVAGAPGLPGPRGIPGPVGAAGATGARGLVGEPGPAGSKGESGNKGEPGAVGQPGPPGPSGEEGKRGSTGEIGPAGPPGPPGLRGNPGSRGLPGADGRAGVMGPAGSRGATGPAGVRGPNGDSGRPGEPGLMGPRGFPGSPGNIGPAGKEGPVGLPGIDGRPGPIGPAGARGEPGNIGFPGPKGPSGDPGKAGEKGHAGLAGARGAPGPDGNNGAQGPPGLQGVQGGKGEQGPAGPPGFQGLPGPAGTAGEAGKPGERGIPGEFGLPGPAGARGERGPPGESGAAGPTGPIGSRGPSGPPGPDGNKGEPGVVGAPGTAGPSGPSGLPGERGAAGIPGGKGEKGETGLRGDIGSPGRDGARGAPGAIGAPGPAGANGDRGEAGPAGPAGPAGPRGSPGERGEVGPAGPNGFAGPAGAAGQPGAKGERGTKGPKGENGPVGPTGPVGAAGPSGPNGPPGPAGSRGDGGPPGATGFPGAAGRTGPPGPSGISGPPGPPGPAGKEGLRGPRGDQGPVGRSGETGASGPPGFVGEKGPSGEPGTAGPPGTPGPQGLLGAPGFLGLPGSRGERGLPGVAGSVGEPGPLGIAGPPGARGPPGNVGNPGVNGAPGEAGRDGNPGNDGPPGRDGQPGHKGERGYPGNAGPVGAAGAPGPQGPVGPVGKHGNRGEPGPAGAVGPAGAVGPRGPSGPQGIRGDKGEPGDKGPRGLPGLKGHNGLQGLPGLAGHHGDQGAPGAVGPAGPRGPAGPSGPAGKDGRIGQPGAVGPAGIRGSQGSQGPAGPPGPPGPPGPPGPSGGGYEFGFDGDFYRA
Put plainly: SPR (BIAcore 1000), Scatchard analysis of equilibrium responses, 1-70 µM Ace A over immobilised collagen; three measurements. On the technique in general: In SPR one partner is held on a chip, and binding of the other changes the refractive index at the surface.

The molecule “Ace of E. faecalis strain END6 (mutanolysin extract)” yielded a % adherence of 46°C grown END6 to CIV in experiment [1] above 20%. For the same molecule, in experiment [2], the % adherence of 46°C grown END6 to LN is above 20%.

With “Ace of E. faecalis strain JH2-2 (mutanolysin extract)”, the % adherence of 46°C grown JH2-2 to CIV in [1] is above 20%. The % adherence of 46°C grown JH2-2 to LN in experiment [2] was above 20%.

As to “Ace of E. faecalis strain MC02152 (native; on cells and in mutanolysin extracts)”, in experiment [3], the % of MC02152 cells bound to BSA; no IgG (% of cells bound) was determined as 0.6. In [1], this molecule displayed a % adherence of 46°C grown MC02152 to CIV above 20%, a % of 37°C grown MC02152 cells bound to CIV of 8.9%, a % of 46°C grown MC02152 cells bound to CIV of 38% and a % of MC02152 cells bound to CIV; no IgG (% of cells bound) of 27.7. In experiment [2], this molecule displayed a % adherence of 46°C grown MC02152 to LN above 20%, a % of 37°C grown MC02152 cells bound to LN of 7.1%, a % of 46°C grown MC02152 cells bound to LN of 41% and a % of MC02152 cells bound to LN; no IgG (% of cells bound) of 26.7.

Molecule “Ace of E. faecalis strain MD9 (mutanolysin extract)” gave a % adherence of 46°C grown MD9 to CIV in [1] above 20%. In addition, the % adherence of 46°C grown MD9 to LN in experiment [2] is above 20%.

For the molecule “Ace of E. faecalis strain OG1RF (native; on 46°C grown cells and in mutanolysin extracts)”, the figures for the % of OG1RF cells bound to CIV; no IgG (% of cells bound) in experiment [4] and in experiment [1] were 29.6 and 27.7, respectively. Also, the fold decrease of adherence to CIV in ace mutant TX5256 against OG1RF in experiment [1] is 27.4 fold.

In experiment [3], “Ace of E. faecalis strain V583 (native; on cells and in mutanolysin extracts)” came in with a % of V583 cells bound to BSA; no IgG (% of cells bound) of 0.7. In experiment [1], this molecule gave a % adherence of 46°C grown V583 to CIV above 20% and a % of V583 cells bound to CIV; no IgG (% of cells bound) of 38.1. In addition, in experiment [2], the % adherence of 46°C grown V583 to LN was above 20% and the % of V583 cells bound to LN; no IgG (% of cells bound) came out at 29.4.

In experiment [5], “IgGs purified from pooled normal human sera collected from healthy volunteers (antibody)” registered a % of OG1RF cells bound to BSA; NHS IgG 0.1 mg/ml (% of cells bound) of 0.9, a % of OG1RF cells bound to BSA; NHS IgG 1 mg/ml (% of cells bound) of 0.7, a % of OG1RF cells bound to BSA; NHS IgG 2 mg/ml (% of cells bound) of 0.7 and a % of OG1RF cells bound to BSA; NHS IgG 4 mg/ml (% of cells bound) of 0.8. In [5], this molecule yielded a % of OG1RF cells bound to CIV; NHS IgG 0.1 mg/ml (% of cells bound) of 24.8, a % of OG1RF cells bound to CIV; NHS IgG 1 mg/ml (% of cells bound) of 25.6, a % of OG1RF cells bound to CIV; NHS IgG 2 mg/ml (% of cells bound) of 24 and a % of OG1RF cells bound to CIV; NHS IgG 4 mg/ml (% of cells bound) of 25.6. In experiment [5], this molecule came in with a % of OG1RF cells bound to LN; NHS IgG 0.1 mg/ml (% of cells bound) of 31.5, a % of OG1RF cells bound to LN; NHS IgG 1 mg/ml (% of cells bound) of 31.3, a % of OG1RF cells bound to LN; NHS IgG 2 mg/ml (% of cells bound) of 31.3 and a % of OG1RF cells bound to LN; NHS IgG 4 mg/ml (% of cells bound) of 31.4.

In experiment [6], “Preimmune rabbit serum and IgGs purified from it (Example 2) (antibody)” displayed a % of OG1RF cells bound to BSA; PI IgG 0.001 µg/ml (% of cells bound) of 0.7, a % of OG1RF cells bound to BSA; PI IgG 0.01 µg/ml (% of cells bound) of 0.1, a % of OG1RF cells bound to BSA; PI IgG 0.1 µg/ml (% of cells bound) of 0.6 and a % of OG1RF cells bound to BSA; PI IgG 1 µg/ml (% of cells bound) of 0.8. In experiment [6], this molecule returned a % of OG1RF cells bound to BSA; PI IgG 10 µg/ml (% of cells bound) of 0.6, a % of OG1RF cells bound to BSA; PI IgG 100 µg/ml (% of cells bound) of 0.6, a % of OG1RF cells bound to CIV; PI IgG 0.001 µg/ml (% of cells bound) of 30.3 and a % of OG1RF cells bound to CIV; PI IgG 0.01 µg/ml (% of cells bound) of 28.8. Also, in experiment [6], the % of OG1RF cells bound to CIV; PI IgG 0.1 µg/ml (% of cells bound) amounted to 28.9, the % of OG1RF cells bound to CIV; PI IgG 1 µg/ml (% of cells bound) came to 25.9, the % of OG1RF cells bound to CIV; PI IgG 10 µg/ml (% of cells bound) amounted to 26.6 and the % of OG1RF cells bound to CIV; PI IgG 100 µg/ml (% of cells bound) was found to be 26. In [6], the % of OG1RF cells bound to LN; PI IgG 0.001 µg/ml (% of cells bound) is 30.2, the % of OG1RF cells bound to LN; PI IgG 0.01 µg/ml (% of cells bound) was determined as 31.4, the % of OG1RF cells bound to LN; PI IgG 0.1 µg/ml (% of cells bound) turned out to be 29.1 and the % of OG1RF cells bound to LN; PI IgG 1 µg/ml (% of cells bound) was 26.4. Also, in experiment [6], the % of OG1RF cells bound to LN; PI IgG 10 µg/ml (% of cells bound) turned out to be 28.3 and the % of OG1RF cells bound to LN; PI IgG 100 µg/ml (% of cells bound) amounted to 32. Besides, in [7], the % of MC02152 cells bound to BSA; PI IgG 20 µg/ml (% of cells bound) is 0.5, the % of MC02152 cells bound to CIV; PI IgG 20 µg/ml (% of cells bound) was found to be 26.5 and the % of MC02152 cells bound to LN; PI IgG 20 µg/ml (% of cells bound) came out at 23.5. In addition, in [8], the % of V583 cells bound to BSA; PI IgG 20 µg/ml (% of cells bound) amounted to 0.6, the % of V583 cells bound to CIV; PI IgG 20 µg/ml (% of cells bound) was 33.6 and the % of V583 cells bound to LN; PI IgG 20 µg/ml (% of cells bound) worked out at 27.6.

Consider “Recombinant Ace A domain of E. faecalis OG1RF (His-tagged, pBAD/HisA, TX5254)”, for which the figures for the EC50 (read off the curve) in experiment [9] and in [10] were 10 µM and 7 µM, respectively.

B1: Ace of E. faecalis strain OG1RF (native; on 46°C grown cells and in mutanolysin extracts) (other)
chain: ELSKSSIVDKVELDHTTLYQGEMTSIKVSFSDKENQKIKPGDTITLTLPDALVGMTENDGSPRKINLNGLGEVFIYKDHVVATFNEKVESLHNVNGHFSFGIKTLITNSSQPNVIETDFGTATATQRLTIEGVTNTETGQIERDYPFFYKVGDLAGESNQVRWFLNVNLNKSDVTEDISIADRQGSGQQLNKESFTFDIVNDKETKYISLAEFEQQGYGKIDFVTDNDFNLRFYRNKARFTSFIVRYTSTITEAGQHQATFENSYDINYQLNNQDATNEKNTSQVKNVFVEGEASGNQNVEMPTEESLDIPLETIDEWEPKTPTSEQATETSEKTGATETAESSQPEVHVSPTEEENPDEGGTLGTIEPIIPEKPSVTTEENGVTETAEGSQPEVHVSPTEEENPDESETLGTITPIIPEKPSVTTEENGVTETAEGSQPEVHVSPTEEENPDESETLGTITPIIPEKPSVTTEENGATETAESSQPEVHVSPAEEENPDESETLGTITPIIPEKPSVTTEENGTTETAESSQPEVHVSPTEEENLDESETLGTIEPIIPEKPSVTTEENGTTETAESSQPEVHVSPTKEITTTEKKQPSTETTVEKNKNVTSKNQPQILNAPLNTVKNEGSPQLAPQLLSEPIQKLNEANGQRELPKT
Consider B1, for which, in [11], the “fold decrease of adherence to LN in ace mutant TX5256 against OG1RF” value worked out at 32.9 fold.

B2: Recombinant E. faecalis EF1 Ace A domain (N-terminal His6-tag fusion, from pQE-30) (other)
chain: MRGSHHHHHHGSELSKSSIVDKVELDHTTLYQGEMTSIKVSFSDKENQKIKPGDTITLTLPDELVGMTENDGSPRKINLNGLGEVFIYKDHVVATFNEKVESLHNVNGHFSFGIKTLITNSSQPNVIETDFGTATATQRLTIEGVTNTETGQIERDYPFFYKVGDLAGESNQVRWFLNVNLNKSDVTEDISIADRQGSGQQLNKESFTFDIVNDKETKYISLAEFEQQGYGKIDFVTDNDFNLRFYRDKARFTSFIVRYTSTITEAGQHQATFENSYDINYQLNNQDATNEKNTSQVKNVFVEGEASGNQNVEMPTEESLDIPLETIEEWEPKTPTSEQATETSEKTD
notes: Residues 32-367 are counted from nucleotides 94-1101; also called recombinant Ace A domain
B2 gave a Kd in experiment [12] of 48 µM.
